# Data taken from the supplement of paper PMC7877785.
# ± gives the uncertainty stated by the source.
# Assay: self-splicing fitness, log relative to wild type (ln ratio); higher = more splicing; Tetrahymena group I intron in knt gene, E. coli kanamycin selection, DiMSum; sequences stand for … in CUCUCU…GGAGGGAAAAGUUAUCAGGCAUGCACCUGGUAGCUAGUCUUUAAACCAAUAGAUUGCAUCGGUUUAAAAGGCAAGACCGUCAAAUUGCGGGAAAGGGGUCAACAGCCGUUCAGUACCAAGUCUCAGGGGAAACUUUGAGAUGGCCUUGCAAAGGGUAUGGUAAUAAGCUGACGGACAUGGUCCUAACCACGCAGCCAAGUCCUAAGUCAACAGAUCUUCUGUUGAUAUGGAUGCAGUUCACAGACUAAAUGUCGGUCGGGGAAGAUGUAUUCUUCUCAUAAGAUAUAGUCGGACCUCUCCUUAAUGGGAGCUAGCGGAUGAAGUGAUGCAACACUGGAGCCGCUGGGAACUAAUUUGUAUGCGAAAGUAUAUUGAUUAGUUUUGGAGUACUCGUGGUCG
# How it was run: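 Six replicate transformations of E. coli BL21(DE3) with a pET-22b(+) library were grown overnight at 37°C or 30°C. The library randomised all eight P1ex-region intron nucleotides, the intron lying in the knt kanamycin-resistance gene, and plates were LB agar with or without 25 μg/mL kanamycin plus 100 μg/mL carbenicillin, 50 μM IPTG and 0.2% rhamnose. Pooled colonies were amplicon-sequenced on an Illumina HiSeq 2500, and fitness is the DiMSum error-weighted combination of wild-type-normalised replicate fold changes, kanamycin versus none.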
Sequence,self-splicing fitness (ln) (30 °C),self-splicing fitness (ln) (37 °C)
AUUGAGCAAUAUUACGCGAG,-1.83 ± 0.13,-0.958 ± 0.14
AUUGAGCAAUAUUACGCGGC,-3.26 ± 0.38,
AUUGAGCAAUAUUACGCUAU,-3.5 ± 0.44,-2.12 ± 0.42
AUUGAGCAAUAUUACGCUUU,-2.92 ± 0.24,-1.29 ± 0.26
AUUGAGCAAUAUUACGGACC,-3.26 ± 0.48,
AUUGAGCAAUAUUACGGUCU,-2.72 ± 0.15,-2.56 ± 0.25
AUUGAGCAAUAUUACGGUUA,-3.06 ± 0.29,-2.57 ± 0.22
AUUGAGCAAUAUUACGUACC,,-1.17 ± 0.46
AUUGAGCAAUAUUACGUCUU,-1.39 ± 0.12,-0.607 ± 0.14
AUUGAGCAAUAUUACGUGUG,-2.38 ± 0.11,-2.41 ± 0.16
AUUGAGCAAUAUUACGUUUA,-2.83 ± 0.19,-2.98 ± 0.27
AUUUAGCAAUAUUACGAACC,-2.12 ± 0.19,-0.169 ± 0.21
AUUUAGCAAUAUUACGACCA,-0.901 ± 0.19,-0.373 ± 0.23
AUUUAGCAAUAUUACGAGGU,-3.21 ± 0.39,-1.91 ± 0.42
AUUUAGCAAUAUUACGCACU,0.177 ± 0.13,0.474 ± 0.16
AUUUAGCAAUAUUACGCAGC,-2.71 ± 0.35,-1.68 ± 0.43
AUUUAGCAAUAUUACGCCAG,-2.27 ± 0.27,
AUUUAGCAAUAUUACGCGCU,-0.923 ± 0.18,-0.889 ± 0.15
AUUUAGCAAUAUUACGGAUC,-2.84 ± 0.22,-0.766 ± 0.19
AUUUAGCAAUAUUACGGAUU,-2.1 ± 0.21,-0.519 ± 0.2
AUUUAGCAAUAUUACGGCCC,-1.06 ± 0.2,-0.289 ± 0.3
AUUUAGCAAUAUUACGGCGG,-2.31 ± 0.17,-0.525 ± 0.17
AUUUAGCAAUAUUACGGGUU,,-0.906 ± 0.21
AUUUAGCAAUAUUACGGUCC,-2.72 ± 0.17,-0.126 ± 0.15
AUUUAGCAAUAUUACGGUGG,-3.55 ± 0.31,-3.1 ± 0.27

Sequence,self-splicing fitness (ln) (30 °C),self-splicing fitness (ln) (37 °C)
AUUUAGCAAUAUUACGGUUC,,-3.23 ± 0.43
AUUUAGCAAUAUUACGUUAA,-2.52 ± 0.27,-2.56 ± 0.34
AUUUAGCAAUAUUACGUUCA,-0.355 ± 0.17,-0.395 ± 0.18
AUUUAGCAAUAUUACGUUCC,-1.54 ± 0.26,-1.23 ± 0.49
CAAAAGCAAUAUUACGACCG,-0.0202 ± 0.1,-0.497 ± 0.13
CAAAAGCAAUAUUACGAGAG,-2.79 ± 0.1,-2.34 ± 0.11
CAAAAGCAAUAUUACGAUGG,-0.431 ± 0.062,-0.139 ± 0.079
CAAAAGCAAUAUUACGAUGU,-2.32 ± 0.075,-1.66 ± 0.11
CAAAAGCAAUAUUACGCUAU,-2.78 ± 0.16,-2.09 ± 0.19
CAAAAGCAAUAUUACGCUUA,-3.17 ± 0.23,-2.17 ± 0.15
CAAAAGCAAUAUUACGCUUG,-3.3 ± 0.15,-2.35 ± 0.19
CAAAAGCAAUAUUACGGACG,-0.163 ± 0.059,0.223 ± 0.079
CAAAAGCAAUAUUACGGAUG,-2.76 ± 0.11,-1.4 ± 0.14
CAAAAGCAAUAUUACGGCGU,-1.23 ± 0.069,-0.3 ± 0.086
CAAAAGCAAUAUUACGGUCA,-1.83 ± 0.13,0.0762 ± 0.1
CAAAAGCAAUAUUACGUAAC,-3.75 ± 0.18,-2.62 ± 0.3
CAAAAGCAAUAUUACGUACA,-1.91 ± 0.1,-1.54 ± 0.13
CAAAAGCAAUAUUACGUAGG,-0.97 ± 0.057,0.00194 ± 0.083
CAAAAGCAAUAUUACGUCAG,-0.464 ± 0.062,-0.392 ± 0.075
CAACAGCAAUAUUACGAAGU,,-1.78 ± 0.16
CAACAGCAAUAUUACGACCG,0.0339 ± 0.079,-0.239 ± 0.081
CAACAGCAAUAUUACGACGA,-0.955 ± 0.075,0.0703 ± 0.084
CAACAGCAAUAUUACGAGUC,-3.58 ± 0.2,-2.58 ± 0.26
CAACAGCAAUAUUACGAUCG,-0.183 ± 0.052,0.463 ± 0.069
CAACAGCAAUAUUACGAUUC,-0.966 ± 0.087,-0.733 ± 0.11

Sequence,self-splicing fitness (ln) (30 °C),self-splicing fitness (ln) (37 °C)
CAACAGCAAUAUUACGCAGG,-2.19 ± 0.11,-0.807 ± 0.085
CAACAGCAAUAUUACGCCCU,-1.96 ± 0.086,-1.24 ± 0.1
CAACAGCAAUAUUACGCCGG,-0.647 ± 0.062,0.147 ± 0.087
CAACAGCAAUAUUACGCCUC,-3.85 ± 0.29,-1.81 ± 0.18
CAACAGCAAUAUUACGCGUU,-3.77 ± 0.14,-1.62 ± 0.08
CAACAGCAAUAUUACGCUGG,-3.71 ± 0.18,-2.01 ± 0.16
CAACAGCAAUAUUACGCUUG,-2.71 ± 0.12,-1.82 ± 0.14
CAACAGCAAUAUUACGGAAA,-3.2 ± 0.17,-2.27 ± 0.18
CAACAGCAAUAUUACGGACA,-1.81 ± 0.1,-0.798 ± 0.097
CAACAGCAAUAUUACGGACG,-0.191 ± 0.063,0.505 ± 0.082
CAACAGCAAUAUUACGGAUG,-2.53 ± 0.074,-0.732 ± 0.068
CAACAGCAAUAUUACGGGAU,-3.7 ± 0.15,-2.08 ± 0.15
CAACAGCAAUAUUACGGGUC,-4.17 ± 0.17,-2.66 ± 0.14
CAACAGCAAUAUUACGGUCU,-3.01 ± 0.11,-2.07 ± 0.095
CAACAGCAAUAUUACGGUGC,-3.12 ± 0.12,-2.8 ± 0.16
CAACAGCAAUAUUACGUAAC,-3.71 ± 0.23,-2.41 ± 0.24
CAACAGCAAUAUUACGUAAG,-0.309 ± 0.044,0.376 ± 0.055
CAACAGCAAUAUUACGUAAU,-2.46 ± 0.08,-2 ± 0.12
CAACAGCAAUAUUACGUAUU,-3.48 ± 0.17,-1.58 ± 0.11
CAACAGCAAUAUUACGUCUC,-2.24 ± 0.074,-0.669 ± 0.081
CAACAGCAAUAUUACGUCUG,-1.89 ± 0.062,-1.38 ± 0.063
CAACAGCAAUAUUACGUGAU,-2.64 ± 0.075,-2.19 ± 0.1
CAACAGCAAUAUUACGUGGA,-3.08 ± 0.13,-2.08 ± 0.096
CAACAGCAAUAUUACGUGGC,-3.17 ± 0.12,-2.81 ± 0.16
CAACAGCAAUAUUACGUUGA,-3.22 ± 0.12,-3.19 ± 0.15

Sequence,self-splicing fitness (ln) (30 °C),self-splicing fitness (ln) (37 °C)
CAAGAGCAAUAUUACGAAAA,,-2.78 ± 0.38
CAAGAGCAAUAUUACGACAG,-0.511 ± 0.08,0.045 ± 0.11
CAAGAGCAAUAUUACGAUCG,-0.79 ± 0.071,0.562 ± 0.1
CAAGAGCAAUAUUACGCACG,-1.96 ± 0.11,-0.942 ± 0.12
CAAGAGCAAUAUUACGCAUC,-3.5 ± 0.29,-0.397 ± 0.39
CAAGAGCAAUAUUACGCCCU,-2.51 ± 0.49,-2.72 ± 0.44
CAAGAGCAAUAUUACGCGUA,-2.2 ± 0.27,-1.95 ± 0.25
CAAGAGCAAUAUUACGGAAU,-3.66 ± 0.26,-2.42 ± 0.23
CAAGAGCAAUAUUACGGACA,-3.46 ± 0.26,-2 ± 0.32
CAAGAGCAAUAUUACGGCGC,-3.56 ± 0.27,-2.17 ± 0.26
CAAGAGCAAUAUUACGGGAU,-2.97 ± 0.17,-2.59 ± 0.31
CAAGAGCAAUAUUACGGGUA,-3.26 ± 0.4,-1.64 ± 0.28
CAAGAGCAAUAUUACGGUGG,-2 ± 0.082,-1.58 ± 0.11
CAAGAGCAAUAUUACGGUUU,-3.5 ± 0.18,-2.33 ± 0.2
CAAGAGCAAUAUUACGUAGG,-1.4 ± 0.069,-1.06 ± 0.1
CAAGAGCAAUAUUACGUCUU,-3.62 ± 0.25,-1.46 ± 0.11
CAAGAGCAAUAUUACGUGUU,-3.47 ± 0.15,-3.58 ± 0.26
CAAGAGCAAUAUUACGUUUU,-3.35 ± 0.16,-2.29 ± 0.15
CAAUAGCAAUAUUACGAAAA,-2.39 ± 0.34,
CAAUAGCAAUAUUACGAAUG,-1.11 ± 0.076,-0.357 ± 0.098
CAAUAGCAAUAUUACGAGCU,-4.39 ± 0.42,-3.5 ± 0.42
CAAUAGCAAUAUUACGAUAA,-3.24 ± 0.48,-3.1 ± 0.33
CAAUAGCAAUAUUACGCAAA,-3.95 ± 0.3,-2.6 ± 0.27
